Measured values from the supplement of paper PMC10126150.
± gives the standard deviation of the averaged measurements.

Tested on: ATP
Test: switch fluorescence ratio, 500 uM ATP over buffer (Cy3 cluster intensity, sum of 5 cycles each) (fold (ratio)); higher = stronger signal-on switching upon ATP binding; sequences stand for … in TCGTCGGCAGCGTCAGATGTGTATAAGAGACAGTTTTTTTTTTTTTTTTTTTTTTTTT…TC
Settings: aptamer strand: ATP DNA aptamer (quencher-CACCTGGGGGAGTATTGCGGAGGAAGG + anchor), 100 nM annealed; ATP concentration: 500 uM
Summary of the method: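 For every switch-domain sequence, the fluorescence ratio is the mean of per-cluster values, each being summed target-cycle Cy3 intensity over summed buffer-cycle Cy3 intensity. Clusters outside 100-1000 RFU were excluded. On a modified Illumina MiSeq flow-cell, the Cy3-labelled switching-strand clusters were annealed to 100 nM quencher-labelled ATP aptamer, imaged in selection buffer and then after 15 min with 500 uM ATP at 22 °C. Five such cycles were run, with NaOH stripping and re-annealing between them.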
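Further: ATP exposure 15 min at 22 °C before imaging.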

Sequence | switch fluorescence ratio
TTGGTATATT | 1.02 ± 0.016
GAGGGGTGTA | 0.9896 ± 0.0085
GGGCGGGGGT | 1.02 ± 0.019
TGGCCGGGCG | 1.011 ± 0.0026
TAGAGGGGTT | 0.985 ± 0.02
GGCCTACCAT | 0.9979 ± 0.0091
GAGGGGCATG | 1.01 ± 0.032
ATCGTGTAGG | 0.99 ± 0.11
CTTTGTCTTA | 0.999 ± 0.05
CAGGGGAAAG | 1.01 ± 0.033
TTGCGGGTGA | 1.01 ± 0.059
ATCATAAGGT | 1.02 ± 0.02
TTTTTACAAG | 1.21 ± 0.3
TCGGTTTAGC | 1.02 ± 0.035
GGTGGAGCGG | 1 ± 0.047
GACTGAGTTG | 0.998 ± 0.036
CAGGCTATTG | 0.988 ± 0.023
GGTATGGGTC | 0.947 ± 0.034
ACAGGACGGA | 1.03 ± 0.013
GGGCAAATGA | 0.9764 ± 0.0041
TTAGTTGGGT | 1.002 ± 0.008
TTATTTTTGA | 1.07 ± 0.096
TGAGAGAAGG | 1.01 ± 0.014

Sequence | switch fluorescence ratio
GTGTGCCGCA | 0.977 ± 0.031
TATTCAGCTA | 1.07 ± 0.099
CGGGTATAGC | 0.996 ± 0.05
TCATACTTAA | 1.04 ± 0.1
TTAGATGGGA | 1.005 ± 0.0047
TTAACGGTCG | 1.02 ± 0.072
TGTGATTTAT | 1.0046 ± 0.00072
TTGTTTATAT | 0.9853 ± 0.0053
GCTTGTATTT | 1 ± 0.014
CTATTGGGTT | 1.02 ± 0.016
ATTCGGTAA | 0.9962 ± 0.0072
TTTATCAGTG | 0.987 ± 0.031
GGGGAAGGTT | 0.991 ± 0.037
TTTTTGGAAC | 1.01 ± 0.023
GTTTATCCGT | 0.996 ± 0.055
AAAGTGGTGT | 0.9845 ± 0.0018
TGTAGAGGTG | 1.09 ± 0.022
GGTTTATTGG | 1 ± 0.03
GTTTCGCCGT | 1.046 ± 0.0054
GTGGGATATA | 0.995 ± 0.049
GCACGGGGCT | 1.04 ± 0.018
GAGCTTCTGT | 1 ± 0.04
GGCTGTAGAC | 1.006 ± 0.0059

Sequence | switch fluorescence ratio
TATTGTAGGG | 0.97 ± 0.013
TTATTAGTGA | 0.9904 ± 0.006
CGAGTGGAGG | 1.03 ± 0.011
GGGGGTCGCA | 0.947 ± 0.069
AAGGAAGTGG | 0.99 ± 0.022
AGTCGTCACG | 0.9926 ± 0.0099
CTTTGAAAA | 1.02 ± 0.02
GCTAGTGAAC | 1.029 ± 0.0091
GCCCAATAAG | 1.03 ± 0.025
GGGGCGGGTT | 1.02 ± 0.04
ATGGAAGTG | 1.001 ± 0.0015
TAGGCGTGCG | 0.976 ± 0.052
ACCGCTGGTT | 0.97 ± 0.014
TGCAGGGCGA | 1.004 ± 0.0097
GGAGGCAAGG | 1.1 ± 0.054
TTATGCCACG | 1.04 ± 0.016
AAAATATACA | 1.01 ± 0.027
CATGTTTTGC | 1.01 ± 0.065
AATACGGGGT | 1.03 ± 0.033
TCGGGGCTGG | 1.02 ± 0.029
CGGTTTTAGG | 1.0066 ± 0.00065
CCAGTATGTT | 0.993 ± 0.024
TGGGGACAAA | 0.986 ± 0.019

Sequence | switch fluorescence ratio
ATAGCCCGGG | 0.986 ± 0.011
TGAAAATTAG | 0.9688 ± 0.0049
TTTTGTGAAG | 0.963 ± 0.035
ATCGTGTATC | 1.06 ± 0.0081
GCAAAGTGGA | 0.9773 ± 0.0047
TTGAAATCGC | 1.01 ± 0.041
TATGGGGATG | 1 ± 0.024
TTATGATTGT | 1.02 ± 0.03
TGTGATTTAA | 1.002 ± 0.0028
GGGGAATTTT | 1.01 ± 0.037
TCATTAAGGG | 0.99105 ± 0.00093
TATCTCTACT | 1.03 ± 0.017
ATGAGTCATG | 1.01 ± 0.028
TTTTCAAAAT | 1.08 ± 0.13
GGGACCAGGG | 0.989 ± 0.027
TAGGCAGGGG | 1.08 ± 0.021
TGGAGAGTAG | 1.01 ± 0.032
TGGATGGGGA | 0.98 ± 0.028
TGGGCGACCG | 0.99 ± 0.021
TCAGCATGTA | 1.04 ± 0.019
TTTAGCACAG | 1.06 ± 0.017
TATTTGGCTA | 0.983 ± 0.045
AGGGTAGTAG | 1.015 ± 0.0063

Sequence | switch fluorescence ratio
GTGGGGAAGG | 1.02 ± 0.054
CCATTAGGGG | 1.01 ± 0.044
ATCTGAAGGT | 0.975 ± 0.031
GACCTTTGTT | 1.01 ± 0.022
GTGTTTAGGA | 1.02 ± 0.018
ACTGTTTTCC | 1.066 ± 0.0042
AAGGTAGAAT | 0.986 ± 0.013
ATTCTGCTGG | 1.01 ± 0.013
CCAGGCTATG | 1.012 ± 0.0047
ATAGAGTTCT | 0.997 ± 0.041
TTCTTTTTGC | 0.9678 ± 0.0084
CGTAAATATA | 1.03 ± 0.015
TGTTTTCGCA | 1 ± 0.021
GTCAGGGTAC | 1.09 ± 0.072
TTGGTTTAAA | 1 ± 0.022
GTGGTATGTG | 0.95 ± 0.045
CGCTTATTAA | 1.072 ± 0.0033
TCTGAAGGTG | 1.28 ± 0.22
TTCGCTTTTT | 0.991 ± 0.032
ATCTGGGAGT | 1.014 ± 0.00032
TTAAGACTTT | 1.02 ± 0.032
GGGATGGATC | 0.9929 ± 0.0011
TAACTAAAGG | 0.9971 ± 0.0099

Sequence | switch fluorescence ratio
TTTATCCTAG | 0.976 ± 0.003
TGCTCCTGAT | 1.02 ± 0.055
CGTTTTTTTC | 1.007 ± 0.01
TGTTGCGAAA | 1 ± 0.025
CTTTGTGCGT | 0.99 ± 0.029
CCACAATCAG | 1.274 ± 0.012
GAGCTAGGAT | 0.985 ± 0.018
CCAGAGGGTT | 1.03 ± 0.031
GATTTAAATA | 0.98 ± 0.018
AGGGGGTTCT | 1.017 ± 0.0056
AAGATCATAA | 0.994 ± 0.019
AAACGTTAGA | 1.03 ± 0.0082
TGTTTGTCA | 0.989 ± 0.022
GCAGTTGTGT | 0.9941 ± 0.0058
GGGTGGGGG | 1.01 ± 0.033
TATCATGCCG | 0.967 ± 0.037
AGGGGGGCTA | 0.991 ± 0.038
TTAGCGGTCA | 1.01 ± 0.021
GTCATAGTGG | 0.9804 ± 0.003
ATATTTTTGG | 0.993 ± 0.011
TACGGGAGCT | 1.05 ± 0.026
ATGATGATAG | 1.01 ± 0.02
TGTTGTTTGT | 1.02 ± 0.026

Sequence | switch fluorescence ratio
TTACGTTTTT | 0.999 ± 0.011
TGCGAGTATT | 1.038 ± 0.0023
GGGCCACTCG | 0.9716 ± 0.0096
TTCGAGGTGC | 1.04 ± 0.05
TCCCCTTGCT | 1.03 ± 0.094
TGGGAGGGGA | 1.03 ± 0.035
AGGGGTACAT | 1.01 ± 0.033
GTTTTTGTCG | 1.07 ± 0.056
ATCTAAACGT | 1.0574 ± 0.00082
TGCAAAGATT | 0.99 ± 0.016
TTTGCTTAAT | 1.02 ± 0.044
GGTTATGGTA | 0.9715 ± 0.0063
AGGTACTGTA | 1.01 ± 0.011
GGTTTTTAAG | 0.995 ± 0.023
TTTGAGAGGT | 1.05 ± 0.03
TTTTGTGGCT | 0.98 ± 0.02
AAAAGCTACT | 1.06 ± 0.053
AATTTTAATG | 0.997 ± 0.022
GTAGTAAGGC | 2.23 ± 0.54
